Target: T1, TCP4 DNA binding domain (Arabidopsis thaliana, UniProt Q8LPR5 45-103)
T1 sequence: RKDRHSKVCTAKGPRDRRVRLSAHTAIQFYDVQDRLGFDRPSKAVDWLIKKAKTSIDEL
Assay: EMSA; EMSA: ~180 ng protein + ~200 ng dsDNA, 4 °C 20 min; DNA annealed in 25 mM Tris, 100 mM NaCl pH 8.0; 7% native PAGE in 0.5x TBE, ethidium bromide; binding buffer not stated
Conditions: protein: recombinant; tags: C-terminal His (pET-21b); chain copies: 2; blunt

B1: CRC promoter probe (dsDNA)
DNA 1: CAGGAAAGGACCATTCTTAA
DNA 2: TTAAGAATGGTCCTTTCCTG
binding result: binds
